# Reference: patent publication US12312412 (dated 2025)
# Numbering of substitutions follows the chain as printed. Names may count otherwise.
# B1: MA 88-B3-F9 CC (Y4E) (antibody, V domains shown)
# VH: QVQLVESGGGLVKPGGSLRLSCAASGFTFSDYYMSWIRQAPGKCLEWVSYISKSSYTVTYADAVKGRFTISRDNAKNSLYLQMNSLRAEDTAVYYCATYNYGHFDYWGQGTLVTVSS
# VL: SYVLTQPPSVSVAPGQTARITCGGNNIGSKSVHWYQQKPGQAPVLVVYDDADRPSGIPERFSGSNSGNTATLTISRVEAGDEADYYCQVWDASAGYGVVFGCGTKLTVL
# B2: MA 81-B9 CC (U4L) (antibody, V domains shown)
# VH: QVQLQESGPGLVKPSETLSLTCTVSGDSISSSRYYWGWIRQPPGKCLEWIGSIYYSGSTYYNPSLKSRVTISVDTSKNQFSLKLSSVTAADTAVYYCARGIFGVITYFDYWGQGTLVTVSS
# VL: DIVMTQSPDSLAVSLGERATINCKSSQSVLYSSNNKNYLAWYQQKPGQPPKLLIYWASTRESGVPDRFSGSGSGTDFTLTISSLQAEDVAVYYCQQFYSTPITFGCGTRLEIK
# B3: MA SG-F28 CC (D9R) (antibody, V domains shown)
# VH: QVQLQESGPGLVKPSQTLSLTCTVSGDSISSNPYYWSWIRQHPGKCLEWIGYISYSGITNYNPSLKSRVTMSVDTSKNQFSLKLTSLTAADTAVYYCAREKMWFGVLNYYYGMDVWGQGTTVTVSS
# VL: DIVMTQTPLSLPVTPGEPASISCRSSQSLLHRSGYNYLDWYLQKPGQSPQLLIYLGSNRASGVPDRFSGSGSGTDFTLKISRVEAGDVGVYYCMQALQTPWTFGCGTKVEIK
# B4: MA 03-G10_AS CC (N3H) (antibody, V domains shown)
# VH: EVQLLESGGGLVQPGGSLRLSCAASGFTFSSYAMSWVRQAPGKCLEWVSAISGSGGGTYYAASVKGRFTISRDNSKNTLYLQMSSLRAEDTAVYYCATGKGVHLGFDYWGQGTLVTVSS
# VL: SYVLTQPPSVSVAPGQTARITCGGNNIGSKSVHWYQQKPGQAPVMVVYDDNDRPSGIPERFSGSNSGNTATLTISRVEAGDEADYYCQVWDYSGQRQVFGCGTKLTVL
# B5: MA 10-G10 AS CC (T1I) (antibody, V domains shown)
# VH: B4 VH with Y32H, Y60N, S84N
# VL: B4 VL with S93V, G94A, Q95P, Q97H
# B6: MA 03-E11 AS CC (G2B) (antibody, V domains shown)
# VH: B4 VH with Y32H, Y60N, S84N, V93A, A97V
# VL: B4 VL with S93Y, G94S, Q95N, Q97A
# B7: MA 98-G12_AS CC (Q4Z) (antibody, V domains shown)
# VH: B4 VH with Y32H, Y60N, S84N, V93A, A97V
# VL: B4 VL with S66F, T73I, S93F, G94S, Q95M, R96T, Q97H
# B8: MA 03-D8 AS CC (L7E) (antibody, V domains shown)
# VH: B4 VH with Y32H, A50T, S84N
# VL: B4 VL with S66F, T73I, S93R, G94T, Q95L, R96D, Q97W
# B9: MA 98-C7 CC (Y8P) (antibody, V domains shown)
# VH: B4 VH with Y32H, A50S, S84N
# VL: B4 VL with G94P, Q95L, Q97H
# B10: MA 03-E7_AS CC (L6M) (antibody, V domains shown)
# VH: B4 VH with L11V, G16R, Y32H, V64G, S84N, V93A, A97V
# VL: B4 VL with S93N, G94M, Q95N, R96V, Q97W
# B11: MA 09-G10 CC (C4K) (antibody, V domains shown)
# VH: QITLKESGPTLVKPTQTLTLTCTFSGFSFTTHKMGVDWIRQPPGKCLEWLAGIHIYDDKRYSPSLQSRLTITKDTSKNQVVLTMTNMDPVDTATYYCAYRRYNWNYENWFDPWGQGTLVTVSS
# VL: DIQMTQSPSSLSASVGDRVTITCQASQDISNYFNWYQQKPGKAPKLLIYAASSLQSGVPSRFSGSGSGTDFTLTISSLQPEDFATYYCQQSYITPFTFGCGTKVEIK
# B12: MA 09-F11 CC (L6Q) (antibody, V domains shown)
# VH: B11 VH with T10M, G52L, H54Y, I55W, Y56N
# VL: B11 VL with S9D, F33L, I93M, T94W, F96T, T97I
# B13: MA 09-H11 CC (I8L) (antibody, V domains shown)
# VH: B11 VH with G52L, H54Y, I55W, Y56N
# VL: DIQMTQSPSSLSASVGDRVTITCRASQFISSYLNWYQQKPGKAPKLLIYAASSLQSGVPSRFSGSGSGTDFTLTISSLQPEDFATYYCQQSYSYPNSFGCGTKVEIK
# B14: MA 09-F12 CC (D1U) (antibody, V domains shown)
# VH: B11 VH with T10A, G52L, H54Y, I55W, Y56N
# VL: B11 VL with F33L, S65R, I93Y, T94Y, F96T, T97L
# B15: MA 09-H10 CC (B6N) (antibody, V domains shown)
# VH: B11 VH with G52L, H54Y, I55W, Y56N
# VL: B11 VL with F33L, S65R, I93T, T94P, F96T
# B16: MA 10-H1 CC (T9K) (antibody, V domains shown)
# VH: EVQLVESGGGLVQPGGSLRLSCAASGFTFSNAWMSWVRQAPGKCLEWVGRITSGIYGGTTDYAAPVKGRFTISRDDSKNTLYLQMNSLKTEDTAVYYCTTPSYSGSYYNYFSVMDVWGQGTTVTVSS
# VL: DIQMTQSPSSLSASVGDRVTITCRTSQSISSYLNWYQQKPGRAPKLLIFAASSLQSGVPSRFSGSGSGTDFTLTISSLQPEDFATYYCQQTYSMPFTFGCGTKVDIK
# B17: MA 09-G11 CC (Y9Q) (antibody, V domains shown)
# VH: B11 VH with T10M, G52L, H54Y, I55W, Y56N
# VL: B11 VL with Q24R, D28F, N31S, F33L, S65R, I93Q, T94S, F96T
# B18: MA 09-C7 CC (K9T) (antibody, V domains shown)
# VH: B11 VH with I2V, T10A, G52E, I55S, Y56E
# VL: B11 VL with Q24R, D28S
# B19: MA 10-D3 CC (O6B) (antibody, V domains shown)
# VH: B16 VH with G54S, I55R, Y82F
# VL: B16 VL with S56G
# B20: MA 09-E2 CC (V8T) (antibody, V domains shown)
# VH: B16 VH with T52K, G54K, I55T, Y82F
# VL: B16 VL with S56G, T91S, M94S, D105E
# B21: MA 10-B5 CC (H6H) (antibody, V domains shown)
# VH: B16 VH with T52R, G54R, I55S, Y82F
# VL: B16 VL with S56G, D105E
# B22: MA 10-G2 CC (T1S) (antibody, V domains shown)
# VH: B16 VH with T52L, G54M, I55H
# VL: B16 VL with Y36F, R42K
# B23: MA 10-D6 CC (V6Z) (antibody, V domains shown)
# VH: B16 VH with Q13K, T52L, S53N, G54N, I55A
# VL: B16 VL with S56G
# B24: MA 86-A4 CC (K2W) (antibody, V domains shown)
# VH: QVQLVESGGGVVQPGRSLRLSCAASGFTFSTYGMHWVRQAPGKCLEWVAVISYDASNKYYAESVKGRFTISRDNSKNTLYLQMNSLRAEDTAVYYCARGQLLTGYWGQGTLVTVSS
# VL: DIQMTQSPSSLSASVGDRVTITCRASQGISNYLAWYQQKPGKVPKLLIYAASTLQSGVPSRFSGSGSGTDFTLTISSLQPEDFATYYCQKYNSAPFTFGCGTKVEIK
# B25: MA 86-A4-N-F5 CC (M4H) (antibody, V domains shown)
# VH: B24 VH with S56E, N57T, K58V, Y59K
# VL: B24 VL with F83V
# Target: MAGEB2 peptide … / HLA-A*02:01 / b2m (human)
# Test: FACS
row,Kd [nM],Binder
1,74.1,B1
2,18.8,B2
3,76.8,B3
4,0.9,B4
5,1.7,B5
6,4.2,B6
7,0.9,B7
8,0.5,B8
9,0.7,B9
10,0.5,B10
11,0.8,B11
12,0.6,B12
13,0.5,B13
14,0.5,B14
15,0.6,B15
16,1.2,B16
17,0.6,B17
18,0.9,B18
19,1.1,B19
20,0.7,B20
21,0.7,B21
22,1,B22
23,0.7,B23
24,35.5,B24
25,51.8,B25
